Measurements taken from US20180326086A1 (UNIVERSITY OF BRITISH COLUMBIA, published 2018).

How the values were obtained:
Assay in all cases: SPR direct binding, antigen immobilized, hybridoma supernatant
[1] = target: T1, cyclo(CGHDSGG)-conjugated-BSA (SEQ ID NO: 2) (bovine, UniProt P02769 25-607, head-to-tail cyclized (amide bond between N-terminus and C-terminus); Cys conjugated to BSA through SMCC)
T1 construct: HDSG is A-beta residues 6-9; C, G and GG are linker residues; also called Cyclic-Peptide; cyclic peptide
T1 sequence (P02769 25-607 limits assumed): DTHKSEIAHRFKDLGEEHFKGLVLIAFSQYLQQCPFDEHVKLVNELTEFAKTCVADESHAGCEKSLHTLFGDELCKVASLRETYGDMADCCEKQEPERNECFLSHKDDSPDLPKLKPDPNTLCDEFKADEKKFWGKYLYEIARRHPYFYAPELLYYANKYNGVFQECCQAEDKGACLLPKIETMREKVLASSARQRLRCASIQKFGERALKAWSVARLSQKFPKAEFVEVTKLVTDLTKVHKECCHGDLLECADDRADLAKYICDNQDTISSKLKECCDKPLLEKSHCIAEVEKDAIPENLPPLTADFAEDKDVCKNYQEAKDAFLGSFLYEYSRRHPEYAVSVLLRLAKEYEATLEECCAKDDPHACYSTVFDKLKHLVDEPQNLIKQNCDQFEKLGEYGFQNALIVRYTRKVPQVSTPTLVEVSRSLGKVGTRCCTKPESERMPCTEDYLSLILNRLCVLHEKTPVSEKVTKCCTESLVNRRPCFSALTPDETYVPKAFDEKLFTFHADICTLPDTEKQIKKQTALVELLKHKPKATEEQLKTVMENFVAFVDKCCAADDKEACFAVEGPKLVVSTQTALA
Description: (§1) SPR Analysis All SPR measurements were performed using a Molecular Affinity Screening System (MASS-1) (Sierra Sensors GmbH, Hamburg, Germany), an analytical biosensor that employs high intensity laser light and high speed optical scanning to monitor binding interactions in real time. The primary screening of tissue culture supernatants was performed using an SPR direct binding assay, whereby BSA-conjugated peptides, A-Beta42 Monomer and A-beta42 Oligomer are covalently immobilized on individual flow cells of a High Amine Capacity (HAC) sensorchip (Sierra Sensors GmbH, Hamburg, Germany) and antibodies flowed over the surface. Protein G purified mAbs were analyzed in a secondary screen using an SPR indirect (capture) binding assay, whereby the antibodies were captured on a protein A-derivatized sensorchip (XanTec Bioanalytics GmbH, Duesseldorf, Germany) and A-Beta40 Monomer, A-beta42 Oligomer, soluble brain extracts and cerebrospinal fluid flowed over the surface. The specificity of the antibodies was verified in an SPR direct binding assay by covalently immobilizing A-Beta42 Monomer and A-beta42 Oligomer on individual flow cells of a HAC sensorchip and flowing purified mAbs.
(§2) Clones were retested for their ability to bind cyclic peptide, linear peptide, A-beta 1-42 monomer and A-beta 1-42 oligomers prepared as described above. Binding assays were performed using SPR as described above (Direct binding assays).

A-beta42 monomer = target: T2, A-beta42 monomer (human)
T2 construct: also called Aβ 42 Monomer; A-beta 1-42 monomer
T2 sequence (peptide, as listed by the source): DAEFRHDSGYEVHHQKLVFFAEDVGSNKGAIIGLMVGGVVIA
Description: as §1, §2

A-beta42 oligomer = target: T3, A-beta42 oligomer (human)
T3 construct: also called Aβ 42 Oligomer; A-beta 1-42 oligomers
T3 sequence (peptide, as listed by the source): as above
Description: as §1, §2

B1: 303-25-1B4 (antibody, V domains shown)
VH: QVQLQQPGAELVRPGASVKLSCKASGYTFTSYWMNWVKQRPGQGLEWIGMIDPSDSQTHYNQMFKDKATLTVDKSSSTAYLQLSSLTSEDSAVYYCSRGGYWGQGTTLTVSS
VL: DIQMTQSPSSLSASLGGKVTITCKASQDINNYIAWYQHKPGKGPRQLIYYTSTLQPGIPSRFSGSGSGRDYSFTISDLEPEDIATYYCLQYDNLWTFGGGTKLEIK
notes: Mouse monoclonal raised against cyclo(CGHDSGG)-KLH; also called clone 25
SPR binding response (RU) [1]: 136 RU | SPR binding response (RU) (A-beta42 monomer): 56.5 RU | SPR binding response (RU) (A-beta42 oligomer): 109 RU
